Measured values taken from the RNAGym collection of RNA variant scans (doi:10.7554/elife.80360).

B1: Hairpin Ribozyme (parent)
chain: GUCCUCUUUCACGUGCGCGUGAAAGAGAGAAGUGAACCAGAGAAACACACGUUGUGGUAUAUUACCUGGUA

Variants of: B1
Assay: self-cleavage, relative activity (ratio to wild type); higher = more cleavage; co-transcriptional
GUCCUCUUUCACGUGUGCGUGAAAGAGAGAAGUGAACCAGAGAAACACACGUUGUGGUAUUUUACCUGGUA [C16U A61U] showed a self-cleavage of 0.256.
Variant GUCCUCUUUCACGUGUGCGUGAACGAGAGAAGUGAACCAGAGAAACACACGUUGUGGUAUAUUACCUGGUA [C16U A24C] has a self-cleavage of 1.12.
Work on GUCCUCUUUCACGUGUGCGUGAAAGAGAGACGUGAACCAGAGAAACACACGUUGUGGUAUAUUACCUGGUA [C16U A31C] yielded a self-cleavage of 0.165.
GUCCUCUUUCACGUGUGCGUGAAAGAGAGAAGUGAACCAGAGAAAUACACGUUGUGGUAUAUUACCUGGUA [C16U C46U] showed a self-cleavage of 0.143.
GUCCUCUUUCACGUGUGCGUGAAAGUGAGAAGUGAACCAGAGAAACACACGUUGUGGUAUAUUACCUGGUA [C16U A26U] gave a self-cleavage of 0.817.
GUCCUCUUUCACGUGUGCGUGAAAGAGAGAAGUGAACCAGAGAAACACGCGUUGUGGUAUAUUACCUGGUA [C16U A49G] gave a self-cleavage of 0.659.
With GUCCUCUUUCACGUGGGCGUGAAAGAGAGAAGUGAACCAGAGAAACACACGUUGUGGUAUAUUACCUGGCA [C16G U70C] the self-cleavage was 0.829.
Variant GUCCUCUUUCACGUGGGCGUGAAAGAGAGAAGUGAACCAGAGAAACACACGUUGUGGUAUAUUACCUGGAA [C16G U70A] has a self-cleavage of 0.728.
With GUCCUCUUUCACGUGGGCGUGAAAGAGAGAAGCGAACCAGAGAAACACACGUUGUGGUAUAUUACCUGGUA [C16G U33C] the self-cleavage was 0.188.
In the case of GUCCUCUUUCACGUGGGCGUGAAAGAGAGAAGUGAACCAGAGAAACACACGUUGUGGUAUACUACCUGGUA [C16G U62C], the self-cleavage is reported as 0.213.
For GUCCUCUUUCACGUGUGCGUGAAAGAGAGAAGUGAACCAGUGAAACACACGUUGUGGUAUAUUACCUGGUA [C16U A41U], the self-cleavage was 1.4.
GUCCUCUUUCACGUGUGCGUGAAAGAGAGAAGUGAACCAGAGAAACACACGUUGUGGUAUAUUACCUGGUG [C16U A71G] showed a self-cleavage of 1.08.
Variant GUCCUCUUUCACGUGUGCGUGAAAGAGAGAAGUGAAGCAGAGAAACACACGUUGUGGUAUAUUACCUGGUA [C16U C37G] has a self-cleavage of 0.182.
Work on GUCCUCUUUCACGUGGGCGUGAAAGAGAGAAGUGAACCAGAGAAACACACGUUGUGGUAUAUUACCCGGUA [C16G U67C] yielded a self-cleavage of 0.155.
With GUCCUCUUUCACGUGGGCGUGAAAGAGAGAAGUGAACCAGAGAAACACACGUUGUGGUAUAUUACCGGGUA [C16G U67G] the self-cleavage was 0.191.
In the case of GUCCUCUUUCACGUGUGCGUGAAAGAGAGAAGUGAACCAGAGAAACACACGUUGUGGUUUAUUACCUGGUA [C16U A59U], the self-cleavage is reported as 0.173.
GUCCUCUUUCACGUGUGCGUGAAAGAGAGAAGUGAACAAGAGAAACACACGUUGUGGUAUAUUACCUGGUA [C16U C38A] gave a self-cleavage of 0.172.
GUCCUCUUUCACGUGUGCGUGAAAGAGAGGAGUGAACCAGAGAAACACACGUUGUGGUAUAUUACCUGGUA [C16U A30G] gave a self-cleavage of 0.157.
GUCCUCUUUCACGUGUGCGUGAAAGAGAGAAGUGAACCAGAGACACACACGUUGUGGUAUAUUACCUGGUA [C16U A44C] showed a self-cleavage of 0.0379.
GUCCUCUUUCACGUGUGCGUGAAAGAGAGAAGUGAACCAGAGAUACACACGUUGUGGUAUAUUACCUGGUA [C16U A44U] gave a self-cleavage of 0.154.
Variant GUCCUCUUUCACGUGUGCGUGAAAGAGAGAAGUGAACCAGAGAGACACACGUUGUGGUAUAUUACCUGGUA [C16U A44G] has a self-cleavage of 0.101.
For GUCCUCUUUCACGUGUGUGUGAAAGAGAGAAGUGAACCAGAGAAACACACGUUGUGGUAUAUUACCUGGUA [C16U C18U], the self-cleavage was 0.979.
For GUCCUCUUUCACGUGGGCGUGAAAGAGAGAAGUGAACCAGAGAAACACACGUAGUGGUAUAUUACCUGGUA [C16G U53A], the self-cleavage was 0.855.
Work on GUCCUCUUUCACGUGUGCGUGAAAGAGAGAAGUGAACCAGAGAAACACACGUUGUGGUAUAUUACCUGGUA [C16U] yielded a self-cleavage of 1.04.
With GUCCUCUUUCACGUGUGCGUGAAAGAGAGAAGUGAACCAGAGAAACACACGUUGUGGUAUAUUGCCUGGUA [C16U A64G] the self-cleavage was 0.505.
In the case of GUCCUCUUUCACGUGGGCGUGAAAGAGAGAAGUGAACCAGAGAAACACACGUUGUGGGAUAUUACCUGGUA [C16G U58G], the self-cleavage is reported as 0.749.
In the case of GUCCUCUUUCACGUGGGCGUGAAAGAGAGAAGUGAACCAGAGAAACACACGUUGUGGUAUAUGACCUGGUA [C16G U63G], the self-cleavage is reported as 0.182.
GUCCUCUUUCACGUGGGCGUGAAAGAGAGAAGUGAACCAGAGAAACACACGUUGUGGUAUAUAACCUGGUA [C16G U63A] showed a self-cleavage of 0.15.
In the case of GUCCUCUUUCACGUGUGCGUGAAAGAGAGAAGUGAGCCAGAGAAACACACGUUGUGGUAUAUUACCUGGUA [C16U A36G], the self-cleavage is reported as 1.34.
Work on GUCCUCUUUCACGUGGGCGUGAAAGAGAGAAGUGAACCAGAGAAACACACGUUGGGGUAUAUUACCUGGUA [C16G U55G] yielded a self-cleavage of 0.247.
GUCCUCUUUCACGUGGGCGUGAAAGAGAGAAGUGAACCAGAGAAACACACGUUGUGGUAUAUUACCUGUUA [C16G G69U] gave a self-cleavage of 0.196.
With GUCCUCUUUCACGUGGGCGUGAAAGAGAGAAGUGAACCAGAGAAACACACGUUGUGGUAUAUUACCUGAUA [C16G G69A] the self-cleavage was 0.225.
Variant GUCCUCUUUCACGUGUGCGUGAAAGAGAGAAGUGAACCAGAGAACCACACGUUGUGGUAUAUUACCUGGUA [C16U A45C] has a self-cleavage of 0.066.
With GUCCUCUUUCACGUGUGCGUGAAAGAGAGAAGUGCACCAGAGAAACACACGUUGUGGUAUAUUACCUGGUA [C16U A35C] the self-cleavage was 1.39.
Work on GUCCUCUUUCACGUGUGCGUGAAAGAGAGAAGUGGACCAGAGAAACACACGUUGUGGUAUAUUACCUGGUA [C16U A35G] yielded a self-cleavage of 0.937.
GUCCUCUUUCACGUGGGCGUGAAAGAGAGAAGUGAACCAGAGAAACACACGUUGUGAUAUAUUACCUGGUA [C16G G57A] gave a self-cleavage of 0.0803.
With GUCCUCUUUCACGUGGGCGUGAAAGAGAGAAGUGAACCAGAGAAACACACGUUGUGGUAUAUUACCUUGUA [C16G G68U] the self-cleavage was 0.132.
Work on GUCCUCUUUCACGUGGGCGUGAAAGAGAGAAGUGAACCAGAGAAACACACGUUGUGGUAUAUUACCUAGUA [C16G G68A] yielded a self-cleavage of 0.243.
